Molecular target: M. tuberculosis RNA polymerase holoenzyme (M. tuberculosis) (UniProt P9WGZ1)
Assay: single-molecule fluorescence

M. tuberculosis GlnR C60SL147C labelled with Alexa Fluor 647 (from UniProt O53830 1-255) (natural protein)
stoichiometry N: 4

From publication doi:10.1101/2023.01.09.523197
